# Literature values in publication PMC8689690.
# Target: IL-28R1 (Homo sapiens) (UniProt Q8IU57)
# Assay: ELISA
# UniProt Q8IU57, sequence (Q8IU57 21-228): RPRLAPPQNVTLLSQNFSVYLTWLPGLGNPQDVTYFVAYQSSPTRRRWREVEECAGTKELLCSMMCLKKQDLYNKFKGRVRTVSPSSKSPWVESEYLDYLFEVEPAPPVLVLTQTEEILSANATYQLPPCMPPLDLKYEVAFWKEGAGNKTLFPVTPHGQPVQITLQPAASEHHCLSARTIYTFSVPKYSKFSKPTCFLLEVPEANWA
row,Kd [nM],Substance
1,15,IFNL1 (from UniProt Q8IU54)
2,65,IFNL3 (from UniProt Q8IZI9)
